B1: VP40.47 (ssRNA)
RNA: GGGAGGACGAUGCGGCAGUUAAUUAAUUUGAGUUGUGAUGUGUGUCGUUAUGGGCCAGACGACUCGCCCGA
modifications: 2'-F pyrimidines
B2: VT30.20 (ssRNA)
RNA: GGGAGGACGAUGCGGAAACGGAAGAAUUGGAUACCGCUACGUGUUCAGACGACUCGCCCGA
modifications: 2'-F pyrimidines
B3: VP40.43 (ssRNA)
RNA: GGGAGGACGAUGCGGACAGAAGAAUUGGGCUUCGCAUUAUCCUCUGUCAGCCGCCAGACGACUCGCCCGA
modifications: 2'-F pyrimidines
B4: VT30.52 (ssRNA)
RNA: GGGAGGACGAUGCGGAAGAAUUGAGCAUUCCUUCUCCUUGUGCCUCAGACGACUCGCCCGA
modifications: 2'-F pyrimidines
B5: VT30.40 (ssRNA)
RNA: GGGAGGACGAUGCGGAUUUGGAUGCAUGUCAAGGCGUUUUGCCCUCAGACGACUCGCCCGA
modifications: 2'-F pyrimidines
B6: VP40.53 (ssRNA)
RNA: GGGAGGACGAUGCGGUGAGAGAAACGGAAGAAUUGGAUACGAUACUCAUCGCGCUCAGACGACUCGCCCGA
modifications: 2'-F pyrimidines
B7: VT30.7 (ssRNA)
RNA: GGGAGGACGAUGCGGUAACCAGUGGAAGAAUUGGCUGCUAUCCUCAGACGACUCGCCCGA
modifications: 2'-F pyrimidines
B8: VP40.44 (ssRNA)
RNA: GGGAGGACGAUGCGGAUCUGUUGAACUGGGUUUUGCCGACGGUUACGCUUUUGCUCAGACGACUCGCCCGA
modifications: 2'-F pyrimidines
B9: VT30.38 (ssRNA)
RNA: GGGAGGACGAUGCGGAGCGGUAUUCUGUUCGGUCGUUUUCCUCCUCAGACGACUCGCCCGA
modifications: 2'-F pyrimidines
B10: VT30.23 (ssRNA)
RNA: GGGAGGACGAUGCGGGAUCACGAUACUUGACGAUUUUCCUCUCCUCAGACGACUCGCCCGA
modifications: 2'-F pyrimidines
B11: VT30.1 (ssRNA)
RNA: GGGAGGACGAUGCGGAACUAGUGAAUGCUUAUACGACCGUGUUGUCAGACGACUCGCCCGA
modifications: 2'-F pyrimidines
B12: VT30.10 (ssRNA)
RNA: GGGAGGACGAUGCGGAACGGAAGAAUUGGAUACGUAGCAUGCGUCAGACGACUCGCCCGA
modifications: 2'-F pyrimidines
B13: VT30.18 (ssRNA)
RNA: GGGAGGACGAUGCGGUUCAGAAUUGGCUGCGAUCCUUUUCCCCCUCAGACGACUCGCCCGA
modifications: 2'-F pyrimidines
B14: VP30.54 (ssRNA)
RNA: GGGAGGACGAUGCGGAAGAAACGGAAGAAUUGGAGACACGCUCGUCAGACGACUCGCCCGA
modifications: 2'-F pyrimidines
B15: VT30.53 (ssRNA)
RNA: GGGAGGACGAUGCGGAGCUAACGGAAGAAUUGGAAACAACCGCGUCAGACGACUCGCCCGA
modifications: 2'-F pyrimidines
B16: VP30.31 (ssRNA)
RNA: GGGAGGACGAUGCGGUAACCGAUUGAACUUCUUGGACGCUACCGUCAGACGACUCGCCCGA
modifications: 2'-F pyrimidines
B17: VP40.14 (ssRNA)
RNA: GGGAGGACGAUGCGGGUACCAGAAUGAGCAACCGAAUGAAGAACUGGACGCUGCUCAGACGACUCGCCCGA
modifications: 2'-F pyrimidines
B18: VP30.7 (ssRNA)
RNA: GGGAGGACGAUGCGGAAGAAUUGGUCAUCGUCGUCUCCGCCUCCCCAGACGACUCGCCCGA
modifications: 2'-F pyrimidines
B19: VP30.41 (ssRNA)
RNA: GGGAGGACGAUGCGGUAGGAAGUAUUGUAAGCGCCUCGUUUUCGCCAGACGACUCGCCCGA
modifications: 2'-F pyrimidines
B20: VT30.27 (ssRNA)
RNA: GGGAGGACGAUGCGGGAUCACGGCUUUGCACGAUCUUCUUCUCCUCAGACGACUCGCCCGA
modifications: 2'-F pyrimidines
B21: VT30.13 (ssRNA)
RNA: GGGAGGACGAUGCGGCAGGAUUUUGGAAGAAUUGGAUAUUGGCCGCAGACGACUCGCCCGA
modifications: 2'-F pyrimidines
B22: VP30.51 (ssRNA)
RNA: GGGAGGACGAUGCGGAGUUUUGGAAGAAUUGGAUGUUCCGAUCGUCAGACGACUCGCCCGA
modifications: 2'-F pyrimidines
B23: VT30.12 (ssRNA)
RNA: GGGAGGACGAUGCGGUCUUUGGGUUUUUGCCAACGGUUUUCGCUCAGACGACUCGCCCGA
modifications: 2'-F pyrimidines
B24: VT30.9 (ssRNA)
RNA: GGGAGGACGAUGCGGUCAACCGGUUGAAUAUUUGGUCGCUGACCUCAGACGACUCGCCCGA
modifications: 2'-F pyrimidines
B25: VP40.9 (ssRNA)
RNA: GGGAGGACGAUGCGGGAGCAGAACCGAUAGAAGAAUUGGACGCUCAGCUCCGGGUCAGACGACUCGCCCGA
modifications: 2'-F pyrimidines
B26: VT30.8 (ssRNA)
RNA: GGGAGGACGAUGCGGUUGAUCGAUUUUCCUGGCGUCCUUAUGGGUCAGACGACUCGCCCGA
modifications: 2'-F pyrimidines
B27: VT30.2 (ssRNA)
RNA: GGGAGGACGAUGCGGAUCAGUGAAUGCUUAUAGACCGCCUCCGUCAGACGACUCGCCCGA
modifications: 2'-F pyrimidines
B28: VP30.43 (ssRNA)
RNA: GGGAGGACGAUGCGGUAACCGAAUUGAAGUUAUUGGACGCUACCUCAGACGACUCGCCCGA
modifications: 2'-F pyrimidines
B29: VP30.16 (ssRNA)
RNA: GGGAGGACGAUGCGGAUGAUCGCGUAGGAAGUAUUGGAAGGCCCUCAGACGACUCGCCCGA
modifications: 2'-F pyrimidines
B30: VP30.12 (ssRNA)
RNA: GGGAGGACGAUGCGGAAUACGGAAGAAUUGGAUACAUAUGCUCGUCAGACGACUCGCCCGA
modifications: 2'-F pyrimidines
B31: VP40.17 (ssRNA)
RNA: GGGAGGACGAUGCGGUGAACCGAUGGAAUCGCUUGGACGCUCAUCGCACGUUGCUCAGACGACUCGCCCGA
modifications: 2'-F pyrimidines
B32: VP40.4 (ssRNA)
RNA: GGGAGGACGAUGCGGGAAGAAUUGAUGUUGUAUUGUCCUUCCGAUUUCCUGCCGUCAGACGACUCGCCCGA
modifications: 2'-F pyrimidines
B33: VP40.41 (ssRNA)
RNA: GGGAGGACGAUGCGGCAAAUUCAAGGUCGAGUUAUGCGUAGAUGUGGCUCCUGUGCAGACGACUCGCCCGA
modifications: 2'-F pyrimidines
B34: VP30.13 (ssRNA)
RNA: GGGAGGACGAUGCGGGAUAACAGAAGAAUUGGUGAACAACGUGGUCAGACGACUCGCCCGA
modifications: 2'-F pyrimidines
B35: VT30.4 (ssRNA)
RNA: GGGAGGACGAUGCGGCUUAAGUUUUGGAAGAAUUGAAUACUGGGUCAGACGACUCGCCCGA
modifications: 2'-F pyrimidines

The binders below were run against VEGF165 (Homo sapiens, UniProt P15692-4 P15692-4:27-191) (assay: filter; 37 C). Conditions: tags: carrier-free, Sf 21 insect cell expressed, R & D Systems; chain copies: 2 (inferred).
Experimental: Nucleic Acid Ligands radiolabeled during transcription by incorporation of α-[³²P]-labeled NTPs, or after synthesis using γ-[³²P]-ATP and T4 polynucleotide kinase, were incubated in low concentration (between 20 and 70 pM) with varying concentrations of VEGF or other growth factors at 37° C. for 15 minutes. Incubations were in TBS, PBS, or HEPES-buffered saline (HBS), pH 7.4, with or without the addition of supplemental divalent cations. Samples were passed through prewashed 0.45 μ Type HA filters (Millipore) followed by a 5-10 ml wash with binding buffer. Filters were immersed in scintillant and counted to quantitate the amount of protein-bound RNA retained by each filter. The equilibrium dissociation constant (KD) of Nucleic Acid Ligand binding to a specific protein was calculated from the data points as described in Green et al. (1996) Biochem. 35: 14413-14424.

VEGF165, sequence (P15692 other isoform, or with tags, fused parts or gaps): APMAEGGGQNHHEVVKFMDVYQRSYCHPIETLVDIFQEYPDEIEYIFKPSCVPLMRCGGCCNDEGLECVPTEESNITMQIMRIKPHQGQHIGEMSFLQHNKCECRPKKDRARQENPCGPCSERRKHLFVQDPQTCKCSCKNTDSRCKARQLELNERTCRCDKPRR

Compared with B1, B2 is 24-fold lower in Kd: 96 pM for the first, 4 pM for the second.

Compared with B3, B4 is 300-fold higher in Kd: 30 pM for the first, 9000 pM for the second.

Compared with B5, B6 is 3.8-fold lower in Kd: 30 pM for the first, 8 pM for the second.

Going from B7 to B8, the Kd rises from 10 pM to 43 pM (4.3-fold). The first binds more tightly here.

Going from B9 to B10, the Kd rises from 5 pM to 19 pM (3.8-fold). The first binds more tightly here.

First: B11
Second: B12
The Kd of the first is 5-fold higher: 10 pM for the first, 2 pM for the second.

First: B13
Second: B14
The Kd of the first is 2.5-fold lower: 4 pM for the first, 10 pM for the second.

Compared with B15, B16 is 1.7-fold lower in Kd: 10 pM for the first, 6 pM for the second.

First: B17
Second: B18
The Kd of the first is 380-fold lower: 8 pM for the first, 3000 pM for the second.

First: B19
Second: B20
The Kd of the first is 17-fold lower: 7 pM for the first, 120 pM for the second. The first binds more tightly here.

Going from B21 to B22, the Kd rises from 10 pM to 90 pM (9-fold).

First: B23
Second: B24
The Kd of the first is 3.3-fold lower: 9 pM for the first, 30 pM for the second.

B25 and B26 are within 1.5-fold of each other in Kd: 30 pM for the first, 34 pM for the second.

Going from B27 to B28, the Kd rises from 2 pM to 5 pM (2.5-fold).

B29 and B30 are within 1.5-fold of each other in Kd: 6 pM for the first, 7 pM for the second.

Going from B31 to B32, the Kd rises from 10 pM to 200 pM (20-fold). The first binds more tightly here.

First: B33
Second: B34
The Kd of the first is 1100-fold higher: 11000 pM for the first, 10 pM for the second.

For B35, the Kd was 20 pM.

Reference: US20030114404, “Vascular endothelial growth factor (VEGF) nucleic acid ligand complexes” (Gilead Sciences, Inc., published 2003)
